This note sets out measurements from patent publication WO2013125221A1 (dated 2013).

The experiment addresses T1, MBP-IGKVDJ3-6×His (MBP fusion human antibody kappa light chain variable region protein, family 3 consensus).
T1 construct: also called MBP-VK3
Briefly: SPR (legend of Fig. 12B), control MBP.

T1 sequence (chain, as listed by the source): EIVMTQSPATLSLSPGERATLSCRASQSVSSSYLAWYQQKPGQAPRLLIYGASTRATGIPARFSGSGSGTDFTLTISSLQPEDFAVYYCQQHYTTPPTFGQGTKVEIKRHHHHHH

Turning to WHWNWMRLDPMT [code 15 peptide], the binding result is “binds”.
